Measured values from US20190367608A1 (ACTICOR BIOTECH, published 2019).
Changes are numbered by the printed parent chain.

T1: double mutant GPVI-Fc (S125P, S126Q, G128R, Q133K, T136S, T171D, A172L, H174V) (human, UniProt Q9HCN6 21-269)
T1 construct: also called GPVI double mutant; not shown: human IgG1 Fc domain
T1 chain: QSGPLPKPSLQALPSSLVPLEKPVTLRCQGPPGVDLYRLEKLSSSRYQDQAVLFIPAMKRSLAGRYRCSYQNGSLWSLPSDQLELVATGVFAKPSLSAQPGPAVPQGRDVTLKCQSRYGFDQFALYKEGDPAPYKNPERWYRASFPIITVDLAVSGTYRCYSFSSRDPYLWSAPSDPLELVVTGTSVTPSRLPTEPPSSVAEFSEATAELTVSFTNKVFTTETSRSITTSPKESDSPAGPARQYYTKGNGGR

B1: wild-type soluble GPVI-Fc (Fc fusion)
chain: T1 chain with P105S, Q106S, R108G, K113Q, S116T, D151T, L152A, V154H
notes: The gene encodes the ectodomain from the first methionine to asparagine 269; also called wild-type GPVI-Fc; not shown: human IgG1 Fc domain
B2: ACT017 antibody (Fab, V domains shown)
VH: QVQLVQSGAEVKKPGASVKVSCKASGYTFTSYNMHWVRQAPGQGLEWMGGIYPGNGDTSYNQKFQGRVTMTRDTSTSTVYMELSSLRSEDTAVYYCARGTVVGDWYFDVWGQGTLVTVSS
VL: DIQMTQSPSSLSASVGDRVTITCRSSQSLENSNGNTYLNWYQQKPGKAPKLLIYRVSNRFSGVPSRFSGSGSGTDFTFTISSLQPEDIATYYCLQLTHVPWTFGQGTKVEITR
notes: Humanized anti-human GPVI; also called the Fab of the invention

Tests used:
Collagen = molecular target: T2, Collagen; assay: ELISA: collagen coated at 20 µg/mL, increasing GPVI-Fc, peroxidase-coupled anti-human Fc, absorbance at 450 nm
T2 construct: Horm collagen (Nycomed) is named only for the platelet aggregation assays; The collagen used in the ELISA is not specified
Method: Microtitration plates were coated with Collagen in PBS (20 μg/mL, 100 μL per well) overnight at 4° C.
(§1) Nonspecific binding sites were saturated with 200 μL of 1% BSA in PBS for 30 min. The plates were then incubated with increasing concentrations of wild-type or double mutant GPVI-Fc preparations (100 μL in PBS containing 0.1% BSA and 0.1% Tween 20) for 30 min. After 3 washing rounds plates were incubated with a peroxidase-coupled secondary human anti-Fc(ab) for 30 min. Finally, 100 μL of the substrate solution were added to each well for 4 min, and the colorimetric reaction stopped by 25 μL NaOH 3 M.

[1] = molecular target: T1, double mutant GPVI-Fc (S125P, S126Q, …); assay: ELISA: double mutant GPVI-Fc coated at 20 µg/mL, increasing ACT017, peroxidase-coupled anti-human IgG, absorbance at 450 nm
Method: as §1, with “Microtitration plates were coated with GPVI-Fc in PBS (20 μg/mL, 100 μL per well) overnight at 4° C. Nonspecific” for “Nonspecific”, “ACT017” for “wild-type or double mutant GPVI-Fc”, “anti-IgG” for “anti-Fc(ab)”

[2] = molecular target: B1; assay: ELISA: GPVI-Fc coated at 20 µg/mL, increasing ACT017, peroxidase-coupled anti-human IgG, absorbance at 450 nm
Method: as §1, with “Microtitration plates were coated with GPVI-Fc in PBS (20 μg/mL, 100 μL per well) overnight at 4° C. Nonspecific” for “Nonspecific”, “ACT017” for “wild-type or double mutant GPVI-Fc”, “anti-IgG” for “anti-Fc(ab)”

B1
EC50 (read off the curve) (Collagen): ~0.6 µg/mL

B2
binding result [1]: no binding (tested: about 830 ng/ml)
EC50 (read off the curve) [2]: ~30 ng/mL
